Experimental data as given in publication PMC11839890 (European Journal of Nuclear Medicine and Molecular Imaging, 2024).
Non-standard residues stand in square brackets, D forms with d. Residues, ends and D or L forms follow the SMILES beside them. *: point of attachment. DOTA = O=C(O)CN1CCN(CC(=O)O)CCN(CC(=O)*)CCN(CC(=O)O)CC1; 1Nal = N[C@@H](Cc1cccc2ccccc12)C(=O)O; NMeNle = CCCC[C@H](NC)C(=O)O

Experiments:
[1] = Extended single-dose toxicity study in Wistar rats; conditions: male, rat, in vivo, intravenous, for humans
Method: The first clinical dose for the therapeutic application was established based on a previous extended singe-dose toxicity study performed on the chemical precursor DOTA-MGS5 in a GLP-compliant laboratory (BSL BIOSERVICE Scientific Laboratories Munich GmbH, Planegg/Munich, Germany). According to applicable guidelines a targeted programme of non-clinical testing was followed. The safety was assessed in a single species and no repeated dose study was performed, as complete clearance between administrations is expected. The study was conducted in male Wister rats and included three dose groups and one control group. The histopathological examination was focused on the main target organs.

[2] = set-up: method as in PMID 34208516; conditions: established for humans from the rat study; cited from earlier work
[3] = in vivo; conditions: female, BALB/c nude (athymic), mouse, iv, 20 pmol peptide, total radioactivity
Method: Biodistribution studies were performed in female athymic BALB/c nude mice (Charles River Laboratories, Sulzfeld, Germany) with A431-CCK2R xenografts induced and animals treated as described previously. The study was approved by the Austrian Ministry of Science (2022–0.351.553). […] Statistical analysis was performed on the data sets using the unpaired two-tailed t-test with a significance level of 0.05.

CCCC[C@@H](C(=O)N[C@@H](CC(=O)O)C(=O)N[C@@H](Cc1cccc2ccccc12)C(N)=O)N(C)C(=O)[C@H](Cc1c[nH]c2ccccc12)NC(=O)CNC(=O)[C@H](Cc1ccc(O)cc1)NC(=O)[C@H](C)NC(=O)[C@@H](CCC(=O)O)NC(=O)CN1CCN(CC(=O)O)CCN(CC(=O)O)CCN(CC(=O)O)CC1 [DOTA-MGS5, DOTA-DGlu-Ala-Tyr-Gly-Trp-(N-Me)Nle-Asp-1-Nal-NH2]
1/100 of NOAEL [1]: 4 µg/kg | NOAEL (no observed adverse effect level) [2]: 0.4 mg/kg body weight

CCCC[C@@H](C(=O)N[C@@H](CC(=O)O)C(=O)N[C@@H](Cc1cccc2ccccc12)C(N)=O)N(C)C(=O)[C@H](Cc1c[nH]c2ccccc12)NC(=O)CNC(=O)[C@H](Cc1ccc(O)cc1)NC(=O)[C@H](C)NC(=O)[C@@H](CCC(=O)O)NC(=O)CN1CCN(CC(=O)O)CCN(CC(=O)O)CCN(CC(=O)O)CC1 [[^111In]In-DOTA-MGS5, metal not drawn]
tissue uptake at 4 h ([3]; kidney uptake): 3.9 ± 0.5 %ID/g | tissue uptake at 4 h ([3]; stomach uptake): 8.2 ± 2.4 %ID/g

CSCC[C@H](NC(=O)[C@H](Cc1c[nH]c2ccccc12)NC(=O)CNC(=O)[C@H](Cc1ccc(O)cc1)NC(=O)[C@H](C)NC(=O)[C@@H](CCC(=O)O)NC(=O)CN1CCN(CC(=O)O)CCN(CC(=O)O)CCN(CC(=O)O)CC1)C(=O)N[C@@H](CC(=O)O)C(=O)N[C@@H](Cc1cccc2ccccc12)C(N)=O [[^111In]In-DOTA-[1Nal^8]MG11, metal not drawn] ({DOTA}-[dE]AYGWMD[1Nal]-NH2)
tissue uptake at 4 h ([3]; kidney uptake): 1.1 ± 0.1 %ID/g | tissue uptake at 4 h ([3]; stomach uptake): 1.2 ± 0.3 %ID/g | tissue uptake at 4 h ([3]; tumour uptake): 1.2 ± 0.2 %ID/g

CCCC[C@@H](C(=O)N[C@@H](CC(=O)O)C(=O)N[C@@H](Cc1ccccc1)C(N)=O)N(C)C(=O)[C@H](Cc1c[nH]c2ccccc12)NC(=O)CNC(=O)[C@H](Cc1ccc(O)cc1)NC(=O)[C@H](C)NC(=O)[C@@H](CCC(=O)O)NC(=O)CN1CCN(CC(=O)O)CCN(CC(=O)O)CCN(CC(=O)O)CC1 [[^111In]In-DOTA-[(N-Me)Nle^6]MG11, metal not drawn] ({DOTA}-[dE]AYGW[NMeNle]DF-NH2)
tissue uptake at 4 h ([3]; kidney uptake): 3 ± 0.3 %ID/g | tissue uptake at 4 h ([3]; stomach uptake): 2.9 ± 0.6 %ID/g | tissue uptake at 4 h ([3]; tumour uptake): 12.3 ± 4.2 %ID/g
